Here are results for 70 variants from the Human Domainome abundance scans (Beltran et al. 2025).

The labels stand for the following.
B1: Ankyrin-3, residues 4094 to 4171; numbered along this chain, Q12955 (parent)
chain: MAIVADHLGLSWTELARELNFSVDEINQIRVENPNSLISQSFMLLKKWVTRDGKNATTDALTSVLTKINRIDIVTLLE

± gives the uncertainty stated by the source.

In this series the parent is B1. Put plainly: abundance fitness (aPCA) (normalised: wild type 0, dead -1); higher = more abundant; growth selection in yeast, the domain comes from the species named. As to conditions: Homo sapiens.
Take MAIVADHLGLSWTELRRELNFSVDEINQIRVENPNSLISQSFMLLKKWVTRDGKNATTDALTSVLTKINRIDIVTLLE: the abundance fitness was -0.893 ± 0.17. The value for MAIVADHLGLSWTELWRELNFSVDEINQIRVENPNSLISQSFMLLKKWVTRDGKNATTDALTSVLTKINRIDIVTLLE was -0.79 ± 0.2.

As for MAIVADHLGLSWTELQRELNFSVDEINQIRVENPNSLISQSFMLLKKWVTRDGKNATTDALTSVLTKINRIDIVTLLE, the abundance fitness was -0.749 ± 0.17. In the case of MAIVADHLGLSWTELVRELNFSVDEINQIRVENPNSLISQSFMLLKKWVTRDGKNATTDALTSVLTKINRIDIVTLLE, the abundance fitness was -0.531 ± 0.1.

On to MAIVADHLGLSWTELDRELNFSVDEINQIRVENPNSLISQSFMLLKKWVTRDGKNATTDALTSVLTKINRIDIVTLLE, for which the abundance fitness was -0.813 ± 0.31. For MAIVADHLGLSWTELLRELNFSVDEINQIRVENPNSLISQSFMLLKKWVTRDGKNATTDALTSVLTKINRIDIVTLLE the value was -0.996 ± 0.15; for MAIVADHLGLSWTELNRELNFSVDEINQIRVENPNSLISQSFMLLKKWVTRDGKNATTDALTSVLTKINRIDIVTLLE, -0.793 ± 0.23. The value for MAIVADHLGLSWTELPRELNFSVDEINQIRVENPNSLISQSFMLLKKWVTRDGKNATTDALTSVLTKINRIDIVTLLE was -0.895 ± 0.13. For MAIVADHLGLSWTELGRELNFSVDEINQIRVENPNSLISQSFMLLKKWVTRDGKNATTDALTSVLTKINRIDIVTLLE the value was -0.257 ± 0.052. As for MAIVADHLGLSWTELTRELNFSVDEINQIRVENPNSLISQSFMLLKKWVTRDGKNATTDALTSVLTKINRIDIVTLLE, the abundance fitness is -0.841 ± 0.21. For MAIVADHLGLSWTELHRELNFSVDEINQIRVENPNSLISQSFMLLKKWVTRDGKNATTDALTSVLTKINRIDIVTLLE the value was -0.601 ± 0.28; for MAIVADHLGLSWTELSRELNFSVDEINQIRVENPNSLISQSFMLLKKWVTRDGKNATTDALTSVLTKINRIDIVTLLE, -0.907 ± 0.14; for MAIVADHLGLSWSELARELNFSVDEINQIRVENPNSLISQSFMLLKKWVTRDGKNATTDALTSVLTKINRIDIVTLLE, -0.078 ± 0.057. The value for MAIVADHLGLSWEELARELNFSVDEINQIRVENPNSLISQSFMLLKKWVTRDGKNATTDALTSVLTKINRIDIVTLLE was 0.005 ± 0.084. Regarding MAIVADHLGLSWIELARELNFSVDEINQIRVENPNSLISQSFMLLKKWVTRDGKNATTDALTSVLTKINRIDIVTLLE, the abundance fitness was -0.02 ± 0.1. The value for MAIVADHLGLSWDELARELNFSVDEINQIRVENPNSLISQSFMLLKKWVTRDGKNATTDALTSVLTKINRIDIVTLLE was -0.35 ± 0.18. For MAIVADHLGLSWCELARELNFSVDEINQIRVENPNSLISQSFMLLKKWVTRDGKNATTDALTSVLTKINRIDIVTLLE the value was -0.546 ± 0.14; for MAIVADHLGLSWQELARELNFSVDEINQIRVENPNSLISQSFMLLKKWVTRDGKNATTDALTSVLTKINRIDIVTLLE, -0.201 ± 0.11. Turning to MAIVADHLGLSWMELARELNFSVDEINQIRVENPNSLISQSFMLLKKWVTRDGKNATTDALTSVLTKINRIDIVTLLE, the abundance fitness is -0.054 ± 0.071. The value for MAIVADHLGLSWLELARELNFSVDEINQIRVENPNSLISQSFMLLKKWVTRDGKNATTDALTSVLTKINRIDIVTLLE was -0.104 ± 0.049; that for MAIVADHLGLSWAELARELNFSVDEINQIRVENPNSLISQSFMLLKKWVTRDGKNATTDALTSVLTKINRIDIVTLLE was -0.153 ± 0.064; that for MAIVADHLGLSWWELARELNFSVDEINQIRVENPNSLISQSFMLLKKWVTRDGKNATTDALTSVLTKINRIDIVTLLE was -0.707 ± 0.1. Turning to MAIVADHLGLSWVELARELNFSVDEINQIRVENPNSLISQSFMLLKKWVTRDGKNATTDALTSVLTKINRIDIVTLLE, the abundance fitness was -0.041 ± 0.055. Regarding MAIVADHLGLSWKELARELNFSVDEINQIRVENPNSLISQSFMLLKKWVTRDGKNATTDALTSVLTKINRIDIVTLLE, the abundance fitness was -0.554 ± 0.21. In the case of MAIVADHLGLSWNELARELNFSVDEINQIRVENPNSLISQSFMLLKKWVTRDGKNATTDALTSVLTKINRIDIVTLLE, the abundance fitness is -0.309 ± 0.19. For the variant MAIVADHLGLSWHELARELNFSVDEINQIRVENPNSLISQSFMLLKKWVTRDGKNATTDALTSVLTKINRIDIVTLLE, the abundance fitness is -0.178 ± 0.11. The value for MAIVADHLGLSWGELARELNFSVDEINQIRVENPNSLISQSFMLLKKWVTRDGKNATTDALTSVLTKINRIDIVTLLE was -0.417 ± 0.062; that for MAIVADHLGLSWPELARELNFSVDEINQIRVENPNSLISQSFMLLKKWVTRDGKNATTDALTSVLTKINRIDIVTLLE was 0.101 ± 0.058; that for MAIVADHLGLSWTHLARELNFSVDEINQIRVENPNSLISQSFMLLKKWVTRDGKNATTDALTSVLTKINRIDIVTLLE was -0.156 ± 0.12. The value for MAIVADHLGLSWTCLARELNFSVDEINQIRVENPNSLISQSFMLLKKWVTRDGKNATTDALTSVLTKINRIDIVTLLE was -0.23 ± 0.14; that for MAIVADHLGLSWTRLARELNFSVDEINQIRVENPNSLISQSFMLLKKWVTRDGKNATTDALTSVLTKINRIDIVTLLE was -0.289 ± 0.05.

With MAIVADHLGLSWTYLARELNFSVDEINQIRVENPNSLISQSFMLLKKWVTRDGKNATTDALTSVLTKINRIDIVTLLE, the abundance fitness was -0.432 ± 0.15.

Take MAIVADHLGLSWTMLARELNFSVDEINQIRVENPNSLISQSFMLLKKWVTRDGKNATTDALTSVLTKINRIDIVTLLE: the abundance fitness is -0.185 ± 0.094. For MAIVADHLGLSWTQLARELNFSVDEINQIRVENPNSLISQSFMLLKKWVTRDGKNATTDALTSVLTKINRIDIVTLLE the value was -0.02 ± 0.056; for MAIVADHLGLSWTILARELNFSVDEINQIRVENPNSLISQSFMLLKKWVTRDGKNATTDALTSVLTKINRIDIVTLLE, -0.278 ± 0.14. For MAIVADHLGLSWTALARELNFSVDEINQIRVENPNSLISQSFMLLKKWVTRDGKNATTDALTSVLTKINRIDIVTLLE the value was -0.082 ± 0.068; for MAIVADHLGLSWTVLARELNFSVDEINQIRVENPNSLISQSFMLLKKWVTRDGKNATTDALTSVLTKINRIDIVTLLE, -0.02 ± 0.057; for MAIVADHLGLSWTLLARELNFSVDEINQIRVENPNSLISQSFMLLKKWVTRDGKNATTDALTSVLTKINRIDIVTLLE, -0.306 ± 0.065. The value for MAIVADHLGLSWTPLARELNFSVDEINQIRVENPNSLISQSFMLLKKWVTRDGKNATTDALTSVLTKINRIDIVTLLE was -0.583 ± 0.09. As to MAIVADHLGLSWTKLARELNFSVDEINQIRVENPNSLISQSFMLLKKWVTRDGKNATTDALTSVLTKINRIDIVTLLE, the abundance fitness was -0.347 ± 0.15.

In the case of MAIVADHLGLSWTGLARELNFSVDEINQIRVENPNSLISQSFMLLKKWVTRDGKNATTDALTSVLTKINRIDIVTLLE, the abundance fitness is -0.426 ± 0.063. For MAIVADHLGLSWTTLARELNFSVDEINQIRVENPNSLISQSFMLLKKWVTRDGKNATTDALTSVLTKINRIDIVTLLE the value was -0.198 ± 0.086. For the variant MAIVADHLGLSWTDLARELNFSVDEINQIRVENPNSLISQSFMLLKKWVTRDGKNATTDALTSVLTKINRIDIVTLLE, the abundance fitness is -0.074 ± 0.085. MAIVADHLGLSWTSLARELNFSVDEINQIRVENPNSLISQSFMLLKKWVTRDGKNATTDALTSVLTKINRIDIVTLLE: the abundance fitness is -0.098 ± 0.057.

Turning to MAIVADHLGLSWTWLARELNFSVDEINQIRVENPNSLISQSFMLLKKWVTRDGKNATTDALTSVLTKINRIDIVTLLE, the abundance fitness was -0.469 ± 0.14. For the variant MAIVADHLGLSWTELAFELNFSVDEINQIRVENPNSLISQSFMLLKKWVTRDGKNATTDALTSVLTKINRIDIVTLLE, the abundance fitness was -0.108 ± 0.15.

Regarding MAIVADHLGLSWTELAAELNFSVDEINQIRVENPNSLISQSFMLLKKWVTRDGKNATTDALTSVLTKINRIDIVTLLE, the abundance fitness was -0.033 ± 0.068. The value for MAIVADHLGLSWTELAEELNFSVDEINQIRVENPNSLISQSFMLLKKWVTRDGKNATTDALTSVLTKINRIDIVTLLE was -0.074 ± 0.1; that for MAIVADHLGLSWTELADELNFSVDEINQIRVENPNSLISQSFMLLKKWVTRDGKNATTDALTSVLTKINRIDIVTLLE was -0.203 ± 0.13. In the case of MAIVADHLGLSWTELAGELNFSVDEINQIRVENPNSLISQSFMLLKKWVTRDGKNATTDALTSVLTKINRIDIVTLLE, the abundance fitness is -0.163 ± 0.058. MAIVADHLGLSWTELACELNFSVDEINQIRVENPNSLISQSFMLLKKWVTRDGKNATTDALTSVLTKINRIDIVTLLE: the abundance fitness was -0.076 ± 0.12. For the variant MAIVADHLGLSWTELAIELNFSVDEINQIRVENPNSLISQSFMLLKKWVTRDGKNATTDALTSVLTKINRIDIVTLLE, the abundance fitness is -0.412 ± 0.3. For MAIVADHLGLSWTELAHELNFSVDEINQIRVENPNSLISQSFMLLKKWVTRDGKNATTDALTSVLTKINRIDIVTLLE the value was -0.182 ± 0.13; for MAIVADHLGLSWTEPARELNFSVDEINQIRVENPNSLISQSFMLLKKWVTRDGKNATTDALTSVLTKINRIDIVTLLE, -0.741 ± 0.15. With MAIVADHLGLSWTEVARELNFSVDEINQIRVENPNSLISQSFMLLKKWVTRDGKNATTDALTSVLTKINRIDIVTLLE, the abundance fitness is -0.039 ± 0.059.

Turning to MAIVADHLGLSWTEEARELNFSVDEINQIRVENPNSLISQSFMLLKKWVTRDGKNATTDALTSVLTKINRIDIVTLLE, the abundance fitness is -0.766 ± 0.18. Take MAIVADHLGLSWTEGARELNFSVDEINQIRVENPNSLISQSFMLLKKWVTRDGKNATTDALTSVLTKINRIDIVTLLE: the abundance fitness is -0.93 ± 0.13. For MAIVADHLGLSWTEMARELNFSVDEINQIRVENPNSLISQSFMLLKKWVTRDGKNATTDALTSVLTKINRIDIVTLLE the value was -0.073 ± 0.084; for MAIVADHLGLSWTERARELNFSVDEINQIRVENPNSLISQSFMLLKKWVTRDGKNATTDALTSVLTKINRIDIVTLLE, -0.869 ± 0.11; for MAIVADHLGLSWTECARELNFSVDEINQIRVENPNSLISQSFMLLKKWVTRDGKNATTDALTSVLTKINRIDIVTLLE, -0.433 ± 0.13. MAIVADHLGLSWTEFARELNFSVDEINQIRVENPNSLISQSFMLLKKWVTRDGKNATTDALTSVLTKINRIDIVTLLE: the abundance fitness is -0.149 ± 0.096. For MAIVADHLGLSWTEQARELNFSVDEINQIRVENPNSLISQSFMLLKKWVTRDGKNATTDALTSVLTKINRIDIVTLLE the value was -0.75 ± 0.33; for MAIVADHLGLSWTESARELNFSVDEINQIRVENPNSLISQSFMLLKKWVTRDGKNATTDALTSVLTKINRIDIVTLLE, -0.772 ± 0.12. Take MAIVADHLGLSWTEIARELNFSVDEINQIRVENPNSLISQSFMLLKKWVTRDGKNATTDALTSVLTKINRIDIVTLLE: the abundance fitness is -0.387 ± 0.2. The value for MAIVADHLGLSWTETARELNFSVDEINQIRVENPNSLISQSFMLLKKWVTRDGKNATTDALTSVLTKINRIDIVTLLE was -0.891 ± 0.3. The value for MAIVADHLGLSQTELARELNFSVDEINQIRVENPNSLISQSFMLLKKWVTRDGKNATTDALTSVLTKINRIDIVTLLE was -0.534 ± 0.3.

Regarding MAIVADHLGLSRTELARELNFSVDEINQIRVENPNSLISQSFMLLKKWVTRDGKNATTDALTSVLTKINRIDIVTLLE, the abundance fitness was -0.844 ± 0.12. For MAIVADHLGLSVTELARELNFSVDEINQIRVENPNSLISQSFMLLKKWVTRDGKNATTDALTSVLTKINRIDIVTLLE the value was -0.753 ± 0.11; for MAIVADHLGLSTTELARELNFSVDEINQIRVENPNSLISQSFMLLKKWVTRDGKNATTDALTSVLTKINRIDIVTLLE, -1.1 ± 0.43; for MAIVADHLGLSSTELARELNFSVDEINQIRVENPNSLISQSFMLLKKWVTRDGKNATTDALTSVLTKINRIDIVTLLE, -0.968 ± 0.15.
